Results reported in publication PMC7994586, “The box C/D snoRNP assembly factor Bcd1 interacts with the histone chaperone Rtt106 and controls its transcription dependent activity” (Nature Communications, 2021).
Where no end group is shown, it is not given here.

T1: recombinant fragment Rtt106p-M (Rtt106p_(65-320)), purified (S. cerevisiae, UniProt P40161 65-320)
T1 chain: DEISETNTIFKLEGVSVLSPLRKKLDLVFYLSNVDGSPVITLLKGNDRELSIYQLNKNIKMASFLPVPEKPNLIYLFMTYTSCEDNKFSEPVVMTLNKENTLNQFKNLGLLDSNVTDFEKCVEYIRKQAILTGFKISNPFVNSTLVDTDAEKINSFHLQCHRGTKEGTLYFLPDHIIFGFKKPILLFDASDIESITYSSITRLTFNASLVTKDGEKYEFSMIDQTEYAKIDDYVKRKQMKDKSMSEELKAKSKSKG

T2: Rtt106p_(65-301) (S. cerevisiae, UniProt P40161 65-301)
T2 construct: Rtt106p, yeast, residues 65-301 (tandem PH domains); also called Rtt106_(65-301); source: E. coli BL21 pRARE2, purified
T2 sequence (looked up): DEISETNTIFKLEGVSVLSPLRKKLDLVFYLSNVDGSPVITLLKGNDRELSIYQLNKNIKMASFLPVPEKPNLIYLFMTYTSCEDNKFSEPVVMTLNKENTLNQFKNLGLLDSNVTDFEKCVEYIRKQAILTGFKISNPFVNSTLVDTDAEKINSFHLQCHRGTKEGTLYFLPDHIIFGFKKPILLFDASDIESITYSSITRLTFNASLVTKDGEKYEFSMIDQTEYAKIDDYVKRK

T3: Rtt106p_(65-301) (S. cerevisiae, UniProt P40161 65-301)
T3 chain: T2 sequence (looked up)

T4: Rtt106p_(65-301) bound to Bcd1p_(120-303) (S. cerevisiae, UniProt P40161 65-301; P38772 120-303)
T4 chain 1: T2 sequence (looked up)
T4 chain 2: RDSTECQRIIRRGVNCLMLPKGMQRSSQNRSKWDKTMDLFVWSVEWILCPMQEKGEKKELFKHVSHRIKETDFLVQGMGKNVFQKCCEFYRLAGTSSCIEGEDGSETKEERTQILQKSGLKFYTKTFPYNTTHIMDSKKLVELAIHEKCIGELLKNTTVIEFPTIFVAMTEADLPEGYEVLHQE

T5: Rtt106p_(65-301) bound to Bcd1p_(120-303) (S. cerevisiae, UniProt P40161 65-301; P38772 120-303)
T5 construct: Rtt106p, yeast, residues 65-301; as the chain of m19; as the chain of m18; Formed before titration with the H3K56ac peptide; source: E. coli BL21 pRARE2, purified proteins, mixed; not shown: His6, N-terminal, cleaved; copies: 1 + 1
T5 sequence (looked up) 1: T2 sequence (looked up)
T5 sequence (looked up) 2: T4 chain 2

B1: recombinant Bcd1pFL, purified (natural protein, S. cerevisiae, UniProt P38772 1-366, looked up)
chain: MAVLCGVCGIKEFKYKCPRCLVQTCSLECSKKHKTRDNCSGQTHDPKEYISSEALKQADDDKHERNAYVQRDYNYLTQLKRMVHVQKMDARMKNKRVLGPVGGHNSNFKKRRYDIDEDDRDSTECQRIIRRGVNCLMLPKGMQRSSQNRSKWDKTMDLFVWSVEWILCPMQEKGEKKELFKHVSHRIKETDFLVQGMGKNVFQKCCEFYRLAGTSSCIEGEDGSETKEERTQILQKSGLKFYTKTFPYNTTHIMDSKKLVELAIHEKCIGELLKNTTVIEFPTIFVAMTEADLPEGYEVLHQEPRPLEHTSTLNKFIDNAREEEDAEEDSQPTEEPVQKETQDASDSDSDSDDDYNPGLSMDFLTA
notes: Bcd1p, S. cerevisiae, full length; Detected by native MS with two zinc ions (42,752 Da); also called Bcd1FL; full-length Bcd1p
B2: Bcd1p120-366 (protein)
chain: RDSTECQRIIRRGVNCLMLPKGMQRSSQNRSKWDKTMDLFVWSVEWILCPMQEKGEKKELFKHVSHRIKETDFLVQGMGKNVFQKCCEFYRLAGTSSCIEGEDGSETKEERTQILQKSGLKFYTKTFPYNTTHIMDSKKLVELAIHEKCIGELLKNTTVIEFPTIFVAMTEADLPEGYEVLHQEPRPLEHTSTLNKFIDNAREEEDAEEDSQPTEEPVQKETQDASDSDSDSDDDYNPGLSMDFLTA
B3: Bcd1p_(120-303) (domain or fragment, S. cerevisiae, UniProt P38772 120-303, looked up)
chain: T4 chain 2
notes: Tag removal is told for the NMR preparation; the preparation for ITC is not described separately; source: E. coli BL21 pRARE2, purified (TALON, PreScission cleavage, gel filtration); not shown: His6, N-terminal, cleaved
B4: H3K56ac (IRRFQKacSTELL) peptide (peptide)
peptide: IRRFQK(Ac)STELL
notes: histone H3 stretch around lysine 56, acetylated at K56; also called acetylated peptide; source: synthetic peptide, bought: Proteogenix
B5: recombinant fragment Rtt106p-M (Rtt106p_(65-320)), purified (domain or fragment, S. cerevisiae, UniProt P40161 65-320, looked up)
chain: T1 chain
notes: Rtt106p, yeast, residues 65-320 (tandem PH1 and PH2 domains); Native MS mass 29,695 Da; also called 65-320 (M) domain of Rtt106p

How the values were obtained:
[1] = target: B5; assay: native MS; individual partners and co-purified complex in 150 mM ammonium acetate pH 7.5, nanoESI, nondenaturing conditions; settings: both partners purified
[2] = target: T1, recombinant fragment Rtt106p-M …; assay: ITC
Rtt106p_(65-301) [3] = target: T2, Rtt106p_(65-301); assay: ITC; 293 K, 10 mM NaPi pH 7.5, 150 mM NaCl, 0.5 mM TCEP; 40 μM titrated, 400 μM titrant; settings: both partners purified
Rtt106p_(65-301) [4] = target: T3, Rtt106p_(65-301); assay: ITC
[5] = target: T4, Rtt106p_(65-301) bound to …; assay: ITC
Rtt106p_(65-301) [6] = target: T2, Rtt106p_(65-301); assay: ITC; H3K56ac peptide (2 mM) as the titrant into 200 μM Rtt106p_(65-301) with or without Bcd1p_(120-303); settings: both partners purified
[7] = target: T5, Rtt106p_(65-301) bound to …; assay: as above; settings: both partners purified
[8] = target: B1; assay: ITC; 293 K, 10 mM NaPi pH 7.5, 150 mM NaCl, 0.5 mM TCEP; 40 μM titrated, 400 μM titrant; settings: both partners purified

**Q.** With B1 as the binder, how does the “stoichiometry N” value [1] read?
**A.** The value was 1.

**Q.** For B2, which Kd [2] is on record?
**A.** The Kd was 1740 nM.

**Q.** Which results are given for B3?
**A.** Kd [2]: 1160 nM; Kd (Rtt106p_(65-301) [3]): 940 ± 60 nM; Kd (Rtt106p_(65-301) [4]): 1630 nM

**Q.** B4 was tested. Which Kd [5] did it give?
**A.** Its Kd is 649000 nM.

**Q.** And the Kd (Rtt106p_(65-301) [4])?
**A.** Its Kd is 714000 nM.

**Q.** Does B4 bind (Rtt106p_(65-301) [6])?
**A.** Result: binds

**Q.** Does B4 bind [7]?
**A.** Result: binds

**Q.** Which Kd [8] does the source give for B5 here?
**A.** The Kd was 1170 ± 170 nM.
